Reference: IntAct's records for PubMed 25910212

B1: Keratin, type II cytoskeletal 1 (Homo sapiens), P04264 (parent)
chain: MSRQFSSRSGYRSGGGFSSGSAGIINYQRRTTSSSTRRSGGGGGRFSSCGGGGGSFGAGGGFGSRSLVNLGGSKSISISVARGGGRGSGFGGGYGGGGFGGGGFGGGGFGGGGIGGGGFGGFGSGGGGFGGGGFGGGGYGGGYGPVCPPGGIQEVTINQSLLQPLNVEIDPEIQKVKSREREQIKSLNNQFASFIDKVRFLEQQNQVLQTKWELLQQVDTSTRTHNLEPYFESFINNLRRRVDQLKSDQSRLDSELKNMQDMVEDYRNKYEDEINKRTNAENEFVTIKKDVDGAYMTKVDLQAKLDNLQQEIDFLTALYQAELSQMQTQISETNVILSMDNNRSLDLDSIIAEVKAQYEDIAQKSKAEAESLYQSKYEELQITAGRHGDSVRNSKIEISELNRVIQRLRSEIDNVKKQISNLQQSISDAEQRGENALKDAKNKLNDLEDALQQAKEDLARLLRDYQELMNTKLALDLEIATYRTLLEGEESRMSGECAPNVSVSVSTSHTTISGGGSRGGGGGGYGSGGSSYGSGGGSYGSGGGGGGGRGSYGSGGSSYGSGGGSYGSGGGGGGHGSYGSGSSSGGYRGGSGGGGGGSSGGRGSGGGSSGGSIGGRGSSSGGVKSSGGSSSVKFVSTTYSGVTR
partner: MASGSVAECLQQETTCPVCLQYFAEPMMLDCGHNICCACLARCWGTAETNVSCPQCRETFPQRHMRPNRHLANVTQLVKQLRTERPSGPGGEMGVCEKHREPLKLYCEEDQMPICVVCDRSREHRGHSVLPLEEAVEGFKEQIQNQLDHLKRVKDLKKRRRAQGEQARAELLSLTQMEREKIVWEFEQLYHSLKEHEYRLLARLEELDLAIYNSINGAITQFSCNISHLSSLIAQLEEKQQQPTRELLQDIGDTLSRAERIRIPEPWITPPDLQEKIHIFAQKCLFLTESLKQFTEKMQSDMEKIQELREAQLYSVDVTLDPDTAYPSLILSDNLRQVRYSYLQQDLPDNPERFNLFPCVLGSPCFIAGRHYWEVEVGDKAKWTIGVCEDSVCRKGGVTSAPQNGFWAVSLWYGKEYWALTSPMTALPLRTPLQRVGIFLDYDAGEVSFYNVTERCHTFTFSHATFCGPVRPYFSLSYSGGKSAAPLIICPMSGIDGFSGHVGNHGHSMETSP
B2: Keratin, type II cytoskeletal 1 (Homo sapiens), P04264 (parent)
chain: B1 chain
B3: Cyclin-dependent kinase 4 (Homo sapiens), P11802 (parent)
chain: MATSRYEPVAEIGVGAYGTVYKARDPHSGHFVALKSVRVPNGGGGGGGLPISTVREVALLRRLEAFEHPNVVRLMDVCATSRTDREIKVTLVFEHVDQDLRTYLDKAPPPGLPAETIKDLMRQFLRGLDFLHANCIVHRDLKPENILVTSGGTVKLADFGLARIYSYQMALTPVVVTLWYRAPEVLLQSTYATPVDMWSVGCIFAEMFRRKPLFCGNSEADQLGKIFDLIGLPPEDDWPRDVSLPRGAFPPRGPRPVQSVVPEMEESGAQLLLEMLTFNPHKRISAFRALQHSYLHKDEGNPE

Variants of: B1
Details: with tri27_human TRIM27, P14373

Variant | effect of a mutation on the interaction
L161P | causing an interaction

Variants of: B2
Details: with nup62_human NUP62, P37198
Sequence of nup62_human NUP62, P37198 (P37198 whole entry): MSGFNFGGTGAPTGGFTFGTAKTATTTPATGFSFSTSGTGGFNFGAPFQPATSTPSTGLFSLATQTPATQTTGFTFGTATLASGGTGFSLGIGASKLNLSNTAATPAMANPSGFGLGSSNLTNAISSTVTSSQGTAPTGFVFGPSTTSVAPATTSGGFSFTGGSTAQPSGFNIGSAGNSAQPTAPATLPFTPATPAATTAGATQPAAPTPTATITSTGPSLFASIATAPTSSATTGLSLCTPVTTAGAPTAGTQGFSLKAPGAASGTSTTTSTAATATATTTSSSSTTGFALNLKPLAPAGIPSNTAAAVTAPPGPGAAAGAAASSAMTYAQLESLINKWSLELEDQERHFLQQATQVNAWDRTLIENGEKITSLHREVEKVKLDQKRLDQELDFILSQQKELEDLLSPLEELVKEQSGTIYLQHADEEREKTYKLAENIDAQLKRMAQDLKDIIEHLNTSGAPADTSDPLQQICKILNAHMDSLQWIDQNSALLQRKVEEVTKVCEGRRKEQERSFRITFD

Variant | effect of a mutation on the interaction
L161P | causing an interaction

Variants of: B2
Details: with KRT15, P19012
Sequence of KRT15, P19012 (P19012 whole entry): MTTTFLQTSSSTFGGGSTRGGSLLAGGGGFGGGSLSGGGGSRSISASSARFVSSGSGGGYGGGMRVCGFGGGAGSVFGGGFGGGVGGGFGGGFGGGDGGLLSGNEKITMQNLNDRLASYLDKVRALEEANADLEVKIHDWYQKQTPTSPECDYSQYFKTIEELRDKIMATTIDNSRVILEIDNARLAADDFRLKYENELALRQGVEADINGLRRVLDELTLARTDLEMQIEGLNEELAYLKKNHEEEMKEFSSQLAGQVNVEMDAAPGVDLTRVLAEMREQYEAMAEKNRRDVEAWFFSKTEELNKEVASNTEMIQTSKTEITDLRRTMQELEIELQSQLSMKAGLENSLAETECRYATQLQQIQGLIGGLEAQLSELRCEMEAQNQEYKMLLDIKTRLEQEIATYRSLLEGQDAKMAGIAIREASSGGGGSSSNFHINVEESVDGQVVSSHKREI

Variant | effect of a mutation on the interaction
L161P | causing an interaction

Variants of: B2
Details: with kt33b_human KRT33B

Variant | effect of a mutation on the interaction
L161P | causing an interaction

Variants of: B2
Details: with goga2_human GOLGA2, Q08379
Sequence of goga2_human GOLGA2, Q08379 (Q08379 whole entry): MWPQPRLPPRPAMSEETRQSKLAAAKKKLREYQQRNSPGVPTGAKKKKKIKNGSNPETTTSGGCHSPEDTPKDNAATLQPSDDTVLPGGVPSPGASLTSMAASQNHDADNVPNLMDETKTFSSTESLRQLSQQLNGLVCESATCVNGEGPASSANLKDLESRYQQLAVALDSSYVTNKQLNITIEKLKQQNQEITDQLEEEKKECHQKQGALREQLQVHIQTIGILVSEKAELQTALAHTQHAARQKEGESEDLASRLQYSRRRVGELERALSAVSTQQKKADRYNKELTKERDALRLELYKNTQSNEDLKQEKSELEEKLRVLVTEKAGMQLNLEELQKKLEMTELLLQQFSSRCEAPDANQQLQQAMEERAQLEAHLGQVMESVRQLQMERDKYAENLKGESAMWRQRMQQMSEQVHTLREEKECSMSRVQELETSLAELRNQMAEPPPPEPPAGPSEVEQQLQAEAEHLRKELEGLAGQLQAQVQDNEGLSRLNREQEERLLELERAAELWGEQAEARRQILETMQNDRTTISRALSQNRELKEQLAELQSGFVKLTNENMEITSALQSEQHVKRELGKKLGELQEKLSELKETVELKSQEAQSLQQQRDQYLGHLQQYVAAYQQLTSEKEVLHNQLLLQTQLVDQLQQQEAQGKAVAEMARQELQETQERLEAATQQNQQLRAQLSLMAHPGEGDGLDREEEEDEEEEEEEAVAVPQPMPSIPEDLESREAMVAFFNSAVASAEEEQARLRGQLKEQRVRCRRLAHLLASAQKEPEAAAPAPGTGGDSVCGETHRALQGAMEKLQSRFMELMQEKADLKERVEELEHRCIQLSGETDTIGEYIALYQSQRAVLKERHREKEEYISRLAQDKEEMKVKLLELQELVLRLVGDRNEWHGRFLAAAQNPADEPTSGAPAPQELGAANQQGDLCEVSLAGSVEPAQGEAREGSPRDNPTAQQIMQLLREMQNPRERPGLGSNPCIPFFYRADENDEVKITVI

Variant | effect of a mutation on the interaction
L161P | causing an interaction

Variants of: B2
Details: with KRT15, P19012
Remark: another data set of the same source

Variant | effect of a mutation on the interaction
L161P | with no effect

Variants of: B2
Details: with kt33b_human KRT33B
Remark: another data set of the same source

Variant | effect of a mutation on the interaction
L161P | with no effect

Variants of: B3
Details: with ccnd1_human CCND1, P24385
Sequence of ccnd1_human CCND1, P24385 (P24385 whole entry): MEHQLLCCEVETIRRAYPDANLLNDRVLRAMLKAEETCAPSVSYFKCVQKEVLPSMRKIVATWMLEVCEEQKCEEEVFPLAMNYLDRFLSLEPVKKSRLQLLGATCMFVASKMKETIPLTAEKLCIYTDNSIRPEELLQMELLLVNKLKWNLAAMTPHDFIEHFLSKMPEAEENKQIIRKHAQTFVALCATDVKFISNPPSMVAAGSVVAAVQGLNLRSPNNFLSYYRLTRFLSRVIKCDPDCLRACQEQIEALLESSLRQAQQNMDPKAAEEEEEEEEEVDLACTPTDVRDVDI

Variant | effect of a mutation on the interaction
MATSRYEPVAEIGVGAYGTVYKACDPHSGHFVALKSVRVPNGGGGGGGLPISTVREVALLRRLEAFEHPNVVRLMDVCATSRTDREIKVTLVFEHVDQDLRTYLDKAPPPGLPAETIKDLMRQFLRGLDFLHANCIVHRDLKPENILVTSGGTVKLADFGLARIYSYQMALTPVVVTLWYRAPEVLLQSTYATPVDMWSVGCIFAEMFRRKPLFCGNSEADQLGKIFDLIGLPPEDDWPRDVSLPRGAFPPRGPRPVQSVVPEMEESGAQLLLEMLTFNPHKRISAFRALQHSYLHKDEGNPE [R24C] | with no effect

Variants of: B3
Details: with ccnd3_human CCND3, P30281
Sequence of ccnd3_human CCND3, P30281 (P30281 whole entry): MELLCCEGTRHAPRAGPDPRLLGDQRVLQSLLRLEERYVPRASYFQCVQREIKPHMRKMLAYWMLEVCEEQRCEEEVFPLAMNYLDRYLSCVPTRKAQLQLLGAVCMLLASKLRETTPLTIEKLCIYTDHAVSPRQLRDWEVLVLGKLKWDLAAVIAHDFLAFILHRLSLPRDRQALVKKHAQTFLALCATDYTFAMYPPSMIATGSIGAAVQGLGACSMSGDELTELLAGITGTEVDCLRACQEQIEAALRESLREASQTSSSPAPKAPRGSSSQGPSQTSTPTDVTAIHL

Variant | effect of a mutation on the interaction
MATSRYEPVAEIGVGAYGTVYKACDPHSGHFVALKSVRVPNGGGGGGGLPISTVREVALLRRLEAFEHPNVVRLMDVCATSRTDREIKVTLVFEHVDQDLRTYLDKAPPPGLPAETIKDLMRQFLRGLDFLHANCIVHRDLKPENILVTSGGTVKLADFGLARIYSYQMALTPVVVTLWYRAPEVLLQSTYATPVDMWSVGCIFAEMFRRKPLFCGNSEADQLGKIFDLIGLPPEDDWPRDVSLPRGAFPPRGPRPVQSVVPEMEESGAQLLLEMLTFNPHKRISAFRALQHSYLHKDEGNPE [R24C] | with no effect

Variants of: B3
Details: with ccnd2_human CCND2, P30279
Sequence of ccnd2_human CCND2, P30279 (P30279 whole entry): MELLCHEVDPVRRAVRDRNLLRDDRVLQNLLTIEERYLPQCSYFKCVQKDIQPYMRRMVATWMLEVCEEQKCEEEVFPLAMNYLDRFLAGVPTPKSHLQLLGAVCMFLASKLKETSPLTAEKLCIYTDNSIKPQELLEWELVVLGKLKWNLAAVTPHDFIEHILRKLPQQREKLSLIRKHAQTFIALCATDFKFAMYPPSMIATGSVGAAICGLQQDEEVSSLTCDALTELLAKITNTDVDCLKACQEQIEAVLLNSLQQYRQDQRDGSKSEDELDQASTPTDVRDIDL

Variant | effect of a mutation on the interaction
MATSRYEPVAEIGVGAYGTVYKACDPHSGHFVALKSVRVPNGGGGGGGLPISTVREVALLRRLEAFEHPNVVRLMDVCATSRTDREIKVTLVFEHVDQDLRTYLDKAPPPGLPAETIKDLMRQFLRGLDFLHANCIVHRDLKPENILVTSGGTVKLADFGLARIYSYQMALTPVVVTLWYRAPEVLLQSTYATPVDMWSVGCIFAEMFRRKPLFCGNSEADQLGKIFDLIGLPPEDDWPRDVSLPRGAFPPRGPRPVQSVVPEMEESGAQLLLEMLTFNPHKRISAFRALQHSYLHKDEGNPE [R24C] | with no effect

Variants of: B3
Details: with cdn2b_human CDKN2B

Variant | effect of a mutation on the interaction
MATSRYEPVAEIGVGAYGTVYKACDPHSGHFVALKSVRVPNGGGGGGGLPISTVREVALLRRLEAFEHPNVVRLMDVCATSRTDREIKVTLVFEHVDQDLRTYLDKAPPPGLPAETIKDLMRQFLRGLDFLHANCIVHRDLKPENILVTSGGTVKLADFGLARIYSYQMALTPVVVTLWYRAPEVLLQSTYATPVDMWSVGCIFAEMFRRKPLFCGNSEADQLGKIFDLIGLPPEDDWPRDVSLPRGAFPPRGPRPVQSVVPEMEESGAQLLLEMLTFNPHKRISAFRALQHSYLHKDEGNPE [R24C] | with no effect

Variants of: B3
Details: with cdn2c_human CDKN2C

Variant | effect of a mutation on the interaction
MATSRYEPVAEIGVGAYGTVYKACDPHSGHFVALKSVRVPNGGGGGGGLPISTVREVALLRRLEAFEHPNVVRLMDVCATSRTDREIKVTLVFEHVDQDLRTYLDKAPPPGLPAETIKDLMRQFLRGLDFLHANCIVHRDLKPENILVTSGGTVKLADFGLARIYSYQMALTPVVVTLWYRAPEVLLQSTYATPVDMWSVGCIFAEMFRRKPLFCGNSEADQLGKIFDLIGLPPEDDWPRDVSLPRGAFPPRGPRPVQSVVPEMEESGAQLLLEMLTFNPHKRISAFRALQHSYLHKDEGNPE [R24C] | disrupting interaction strength

Variants of: B3
Details: with ccnd2_human CCND2, P30279
Remark: another data set of the same source

Variant | effect of a mutation on the interaction
MATSRYEPVAEIGVGAYGTVYKACDPHSGHFVALKSVRVPNGGGGGGGLPISTVREVALLRRLEAFEHPNVVRLMDVCATSRTDREIKVTLVFEHVDQDLRTYLDKAPPPGLPAETIKDLMRQFLRGLDFLHANCIVHRDLKPENILVTSGGTVKLADFGLARIYSYQMALTPVVVTLWYRAPEVLLQSTYATPVDMWSVGCIFAEMFRRKPLFCGNSEADQLGKIFDLIGLPPEDDWPRDVSLPRGAFPPRGPRPVQSVVPEMEESGAQLLLEMLTFNPHKRISAFRALQHSYLHKDEGNPE [R24C] | disrupting interaction strength
